Measured values as given in US20090215120A1 (UNIVERSITY OF MEDICINE AND DENTISTRY OF NEW JERSEY, published 2009).

Columns and labels:
[1] = biological target: PrS2-OmpR (OmpR fused to two tandem repeats of the N-terminal domain, residues 1-92, of protein S of Myxococcus xanthus), P02966
[2] = biological target: T1, OmpR, transcription factor (response regulator) of E. coli, P0AA16
T1 chain: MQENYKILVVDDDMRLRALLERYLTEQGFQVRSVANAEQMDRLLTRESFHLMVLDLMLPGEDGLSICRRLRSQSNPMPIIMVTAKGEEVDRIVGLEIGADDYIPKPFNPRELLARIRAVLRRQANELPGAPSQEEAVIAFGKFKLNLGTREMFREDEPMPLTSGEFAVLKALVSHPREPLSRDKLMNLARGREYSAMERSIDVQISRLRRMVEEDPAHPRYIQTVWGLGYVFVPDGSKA

[3] = biological target: phosphorylated PrS2-OmpR (PrS2-OmpR-P)
[4] = biological target: T2, phosphorylated OmpR (OmpR-P), P0AA16
T2 chain: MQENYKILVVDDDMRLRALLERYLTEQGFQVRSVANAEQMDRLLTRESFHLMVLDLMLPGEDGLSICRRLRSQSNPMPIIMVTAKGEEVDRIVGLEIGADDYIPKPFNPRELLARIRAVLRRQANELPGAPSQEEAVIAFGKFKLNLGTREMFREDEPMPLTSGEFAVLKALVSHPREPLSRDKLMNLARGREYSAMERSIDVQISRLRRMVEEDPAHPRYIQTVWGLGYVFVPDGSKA

[5] = biological target: T3, EnvZc, the cytoplasmic domain of EnvZ (histidine kinase of E. coli) (E. coli, UniProt P0AEJ4 180-450); assay: 10% native PAGE, 4 uM of each protein, 5 min at room temperature
T3 construct: domain: cytoplasmic domain of EnvZ; Purified EnvZc
T3 sequence: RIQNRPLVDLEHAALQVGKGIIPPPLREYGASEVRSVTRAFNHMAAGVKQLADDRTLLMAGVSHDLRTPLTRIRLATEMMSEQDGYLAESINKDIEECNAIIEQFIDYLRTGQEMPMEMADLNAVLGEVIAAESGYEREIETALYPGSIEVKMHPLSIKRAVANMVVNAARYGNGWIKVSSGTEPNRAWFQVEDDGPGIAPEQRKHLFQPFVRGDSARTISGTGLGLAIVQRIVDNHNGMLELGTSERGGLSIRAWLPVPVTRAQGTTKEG

Chain of PrS2-OmpR (OmpR fused to two tandem repeats of the N-terminal domain, residues 1-92, of protein S of Myxococcus xanthus), P02966 (P02966 whole entry, looked up, the tested form may be a part): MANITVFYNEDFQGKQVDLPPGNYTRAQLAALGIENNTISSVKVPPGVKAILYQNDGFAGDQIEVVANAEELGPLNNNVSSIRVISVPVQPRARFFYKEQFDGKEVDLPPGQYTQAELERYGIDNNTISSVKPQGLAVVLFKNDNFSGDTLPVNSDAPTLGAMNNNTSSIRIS

B1: phosphorylated EnvZc (EnvZc-P), 32P-labelled (protein)
chain: RIQNRPLVDLEHAALQVGKGIIPPPLREYGASEVRSVTRAFNHMAAGVKQLADDRTLLMAGVSHDLRTPLTRIRLATEMMSEQDGYLAESINKDIEECNAIIEQFIDYLRTGQEMPMEMADLNAVLGEVIAAESGYEREIETALYPGSIEVKMHPLSIKRAVANMVVNAARYGNGWIKVSSGTEPNRAWFQVEDDGPGIAPEQRKHLFQPFVRGDSARTISGTGLGLAIVQRIVDNHNGMLELGTSERGGLSIRAWLPVPVTRAQGTTKEG
phosphotransfer from 32P-labelled EnvZc-P to PrS2-OmpR (SDS-PAGE, autoradiography) [1]: EnvZc-P was able to phosphorylate PrS2-OmpR and the result was almost identical to the non-tagged OmpR | phosphotransfer from 32P-labelled EnvZc-P to OmpR (SDS-PAGE, autoradiography) [2]: the phosphoryl group on EnvZ was instantly transferred to OmpR and this reaction was completed in 120 sec

B2: EnvZc, the cytoplasmic domain of EnvZ (histidine kinase of E. coli) (protein)
chain: RIQNRPLVDLEHAALQVGKGIIPPPLREYGASEVRSVTRAFNHMAAGVKQLADDRTLLMAGVSHDLRTPLTRIRLATEMMSEQDGYLAESINKDIEECNAIIEQFIDYLRTGQEMPMEMADLNAVLGEVIAAESGYEREIETALYPGSIEVKMHPLSIKRAVANMVVNAARYGNGWIKVSSGTEPNRAWFQVEDDGPGIAPEQRKHLFQPFVRGDSARTISGTGLGLAIVQRIVDNHNGMLELGTSERGGLSIRAWLPVPVTRAQGTTKEG
dephosphorylation of PrS2-OmpR-P by EnvZc upon addition of ADP (SDS-PAGE, autoradiography) [3]: Although in case of PrS2-OmpR, this reaction was slowed by PrS2 tag, phosphorylated PTS2-OmpR was dephosphorylated by EnvZc | dephosphorylation of OmpR-P by EnvZc upon addition of ADP (SDS-PAGE, autoradiography) [4]: OmpR-P was quickly dephosphorylated and Pi was released

B3: OmpR, transcription factor (response regulator) of E. coli (other)
chain: MQENYKILVVDDDMRLRALLERYLTEQGFQVRSVANAEQMDRLLTRESFHLMVLDLMLPGEDGLSICRRLRSQSNPMPIIMVTAKGEEVDRIVGLEIGADDYIPKPFNPRELLARIRAVLRRQANELPGAPSQEEAVIAFGKFKLNLGTREMFREDEPMPLTSGEFAVLKALVSHPREPLSRDKLMNLARGREYSAMERSIDVQISRLRRMVEEDPAHPRYIQTVWGLGYVFVPDGSKA
notes: Purified wild-type OmpR; also called wild-type OmpR; non-tagged OmpR
binding result [5]: binds
